Assay [1] addresses collagen type I. As to the kind of experiment: cell-based or functional assay.
The target in assay [2] is baboon platelet GPVI (baboon). As to the kind of experiment: flow cytometry, washed baboon platelets (positive control). (A flow cytometer gives signals particle by particle.)

Regarding “recombinant human soluble GPVI:Fc (rhusGPVI:Fc) (from UniProt Q9HCN6 21-269) (Fc fusion)”, in assay [1], the concentration of rhusGPVI:Fc needed to inhibit collagen-induced versus Cvx-induced platelet activation amounted to 10 fold.

B1: convulxin (Cvx), purified from the venom of Crotalus durissus terrificus (ligand)
chain 1: GLHCPSDWYYYDQHCYRIFNEEMNWEDAEWFCTKQAKGAHLVSIKSAKEADFVAWMVTQNIEESFSHVSIGLRVQNKEKQCSTKWSDGSSVSYDNLLDLYITKCSLLKKETGFRKWFVASCIGKIPFVCKFPPQC
chain 2: GFCCPSHWSSYDRYCYKVFKQEMTWADAEKFCTQQHTGSHLVSFHSTEEVDFVVKMTHQSLKSTFFWIGANNIWNKCNWQWSDGTKPEYKEWHEEFECLISRTFDNQWLSAPCSDTYSFVCKFEA
Regarding B1, in assay [2], the Baboon fluorescence intensity turned out to be 72 and the Baboon platelets % positive stood at 95%.

The values are drawn from patent publication US20040253236A1.
